Measured values: publication PMC10728164

Biological target: cardiac troponin I (human (endogenous in heart tissue)) (UniProt P19429)
Assay: affinity purification with mass spectrometry; co-purification of the cTn subunits from human heart extract on the cTnI-binding peptide nanoparticles (NP-Pep); 25 mM Tris pH 7.5, 700 mM LiCl, 4 °C; native elution; subunits in the eluate analysed (Supplementary Fig. 2, 3a) and by top-down RPLC-MS/MS

Chain of UniProt P19429 (P19429 whole entry): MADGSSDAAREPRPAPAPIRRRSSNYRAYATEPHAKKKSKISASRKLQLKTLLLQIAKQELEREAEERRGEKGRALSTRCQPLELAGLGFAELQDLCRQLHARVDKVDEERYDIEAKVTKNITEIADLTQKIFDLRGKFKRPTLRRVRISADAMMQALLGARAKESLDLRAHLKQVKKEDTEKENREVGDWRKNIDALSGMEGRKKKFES

Substance: cardiac troponin T (natural protein)
- stoichiometry N: 1
